Experimental findings from US20230080842A1 (WUHAN YZY BIOPHARMA, published 2023) are described below.

B1: Y316-A1 (bispecific antibody)
chain: EVQLVESGGGLVQPGGSLRLSCAASGFDFSRYWMSWVRQAPGKGLEWIGEINPDSSTINYAPSLKDKFIISRDNAKNSLYLQMNSLRAEDTAVYYCARPDGNYWYFDVWGQGTLVTVSSGGGGSGGGGSGGGGSDIQMTQSPSSLSASVGDRVTITCKASQDVGIAVAWYQQKPGKVPKLLIYWASTRHTGVPDRFSGSGSGTDFTLTISSLQPEDVATYYCQQYSSYPYTFGQGTKVEIKGGGGSASEVQLVESGGGVVRPGGSLRLSCAASGFTFDDYGMSWVRQAPGKGLEWVSGINWNGGSTGYADSVKGRFTISRDNAKNSLYLQMNSLRAEDTAVYYCARGRSLLFDYWGQGTLVTVSRGGGGSGGGGSGGGGSSELTQDPAVSVALGQTVRITCQGDSLRSYYASWYQQKPGQAPVLVIYGKNNRPSGIPDRFSGSSSGNTASLTITGAQAEDEADYYCNSRDSSGNHVVFGGGTKLTVLDKTHTCPPCPAPPVAGPSVFLFPPKPKDTLMISRTPEVTCVVVDVSHEAPEVQFNWYVDGVEVHNAKTKPREEQFNSTFRVVSVLTVVHQDWLNGKEYKCKVSNKGLPAPIEKTISKTKGQPREPQVYTLPPSRDELTKNQVSLTCLVKGFYPSDIAVEWESNGQPENNYKTTPPVLDSDGSFFLYSKLTVDKSRWQQGNVFSCSVMHEALHNHYTQKSLSLSPGK
notes: structure 3 Tandem-ScFv-Fc, A series, two identical fusion peptides; scFv Elotuzumab (anti-SLAMF7), scFv NM3E2 (anti-CD16)
B2: Y416-B1 (bispecific antibody, human IgG1, kappa)
light: EVQLVESGGGLVQPGGSLRLSCAASGFDFSRYWMSWVRQAPGKGLEWIGEINPDSSTINYAPSLKDKFIISRDNAKNSLYLQMNSLRAEDTAVYYCARPDGNYWYFDVWGQGTLVTVSSGGGGSGGGGSGGGGSSELTQDPAVSVALGQTVRITCQGDSLRSYYASWYQQKPGQAPVLVIYGKNNRPSGIPDRFSGSSSGNTASLTITGAQAEDEADYYCNSRDSSGNHVVFGGGTKLTVLRTVAAPSVFIFPPSDEQLKSGTASVVCLLNNFYPREAKVQWKVDNALQSGNSQESVTEQDSKDSTYSLSSTLTLSKADYEKHKVYACEVTHQGLSSPVTKSFNRGEC
heavy: DIQMTQSPSSLSASVGDRVTITCKASQDVGIAVAWYQQKPGKVPKLLIYWASTRHTGVPDRFSGSGSGTDFTLTISSLQPEDVATYYCQQYSSYPYTFGQGTKVEIKGGGGSGGGGSGGGGSEVQLVESGGGVVRPGGSLRLSCAASGFTFDDYGMSWVRQAPGKGLEWVSGINWNGGSTGYADSVKGRFTISRDNAKNSLYLQMNSLRAEDTAVYYCARGRSLLFDYWGQGTLVTVSRASTKGPSVFPLAPSSKSTSGGTAALGCLVKDYFPEPVTVSWNSGALTSGVHTFPAVLQSSGLYSLSSVVTVPSSSLGTQTYICNVNHKPSNTKVDKKVEPKSCDKTHTCPPCPAPPVAGPSVFLFPPKPKDTLMISRTPEVTCVVVDVSHEAPEVQFNWYVDGVEVHNAKTKPREEQFNSTFRVVSVLTVVHQDWLNGKEYKCKVSNKGLPAPIEKTISKTKGQPREPQVYTLPPSRDELTKNQVSLTCLVKGFYPSDIAVEWESNGQPENNYKTTPPVLDSDGSFFLYSKLTVDKSRWQQGNVFSCSVMHEALHNHYTQKSLSLSPGK
B3: Y216-A1 (bispecific antibody, human IgG1, kappa)
light: DIQMTQSPSSLSASVGDRVTITCKASQDVGIAVAWYQQKPGKVPKLLIYWASTRHTGVPDRFSGSGSGTDFTLTISSLQPEDVATYYCQQYSSYPYTFGQGTKVEIKRTVAAPSVFIFPPSDEQLKSGTASVVCLLNNFYPREAKVQWKVDNALQSGNSQESVTEQDSKDSTYSLSSTLTLSKADYEKHKVYACEVTHQGLSSPVTKSFNRGEC
heavy: EVQLVESGGGLVQPGGSLRLSCAASGFDFSRYWMSWVRQAPGKGLEWIGEINPDSSTINYAPSLKDKFIISRDNAKNSLYLQMNSLRAEDTAVYYCARPDGNYWYFDVWGQGTLVTVSSASTKGPSVFPLAPSSKSTSGGTAALGCLVKDYFPEPVTVSWNSGALTSGVHTFPAVLQSSGLYSLSSVVTVPSSSLGTQTYICNVNHKPSNTKVDKKVEPKSCDKTHTCPPCPAPPVAGPSVFLFPPKPKDTLMISRTPEVTCVVVDVSHEAPEVQFNWYVDGVEVHNAKTKPREEQFNSTFRVVSVLTVVHQDWLNGKEYKCKVSNKGLPAPIEKTISKTKGQPREPQVYTLPPSRDELTKNQVSLTCLVKGFYPSDIAVEWESNGQPENNYKTTPPVLDSDGSFFLYSKLTVDKSRWQQGNVFSCSVMHEALHNHYTQKSLSLSPGAGGGGSGGGGSGGGGSGEVQLVESGGGVVRPGGSLRLSCAASGFTFDDYGMSWVRQAPGKGLEWVSGINWNGGSTGYADSVKGRFTISRDNAKNSLYLQMNSLRAEDTAVYYCARGRSLLFDYWGQGTLVTVSRGGGGSGGGGSGGGGSSELTQDPAVSVALGQTVRITCQGDSLRSYYASWYQQKPGQAPVLVIYGKNNRPSGIPDRFSGSSSGNTASLTITGAQAEDEADYYCNSRDSSGNHVVFGGGTKLTVL
notes: structure 2 IgG(H)-ScFv, A series; IgG Elotuzumab (anti-SLAMF7), scFv NM3E2 (anti-CD16)
B4: Y216-B1 (bispecific antibody, human IgG1, kappa)
light: B3 light
heavy: EVQLVESGGGLVQPGGSLRLSCAASGFDFSRYWMSWVRQAPGKGLEWIGEINPDSSTINYAPSLKDKFIISRDNAKNSLYLQMNSLRAEDTAVYYCARPDGNYWYFDVWGQGTLVTVSSASTKGPSVFPLAPSSKSTSGGTAALGCLVKDYFPEPVTVSWNSGALTSGVHTFPAVLQSSGLYSLSSVVTVPSSSLGTQTYICNVNHKPSNTKVDKKVEPKSCDKTHTCPPCPAPPVAGPSVFLFPPKPKDTLMISRTPEVTCVVVDVSHEAPEVQFNWYVDGVEVHNAKTKPREEQFNSTFRVVSVLTVVHQDWLNGKEYKCKVSNKGLPAPIEKTISKTKGQPREPQVYTLPPSRDELTKNQVSLTCLVKGFYPSDIAVEWESNGQPENNYKTTPPVLDSDGSFFLYSKLTVDKSRWQQGNVFSCSVMHEALHNHYTQKSLSLSPGAGGGGSGGGGSGGGGSGSELTQDPAVSVALGQTVRITCQGDSLRSYYASWYQQKPGQAPVLVIYGKNNRPSGIPDRFSGSSSGNTASLTITGAQAEDEADYYCNSRDSSGNHVVFGGGTKLTVLGGGGSGGGGSGGGGSEVQLVESGGGVVRPGGSLRLSCAASGFTFDDYGMSWVRQAPGKGLEWVSGINWNGGSTGYADSVKGRFTISRDNAKNSLYLQMNSLRAEDTAVYYCARGRSLLFDYWGQGTLVTVSR
notes: structure 2 IgG(H)-ScFv, B series; IgG Elotuzumab (anti-SLAMF7), scFv NM3E2 (anti-CD16)
B5: Y116-B2 (bispecific antibody)
light: DIQMTQSPSSLSASVGDRVTITCKASQDVGIAVAWYQQKPGKVPKLLIYWASTRHTGVPDRFSGSGSGTDFTLTISSLQPEDVATYYCQQYSSYPYTFGQGTKVEIKRTVAAPSVFIFPPSDEQLKSGTASVVCLLNNFYPREAKVQWKVDNALQSGNSQESVTEQDSKDSTYSLSSTLTLSKADYEKHKVYACEVTHQGLSSPVTKSFNRGECGGGGSEAAAKGGGGSEVQLVESGGGVVRPGGSLRLSCAASGFTFDDYGMSWVRQAPGKGLEWVSGINWNGGSTGYADSVKGRFTISRDNAKNSLYLQMNSLRAEDTAVYYCARGRSLLFDYWGQGTLVTVSR
heavy: EVQLVESGGGLVQPGGSLRLSCAASGFDFSRYWMSWVRQAPGKGLEWIGEINPDSSTINYAPSLKDKFIISRDNAKNSLYLQMNSLRAEDTAVYYCARPDGNYWYFDVWGQGTLVTVSSASTKGPSVFPLAPSSKSTSGGTAALGCLVKDYFPEPVTVSWNSGALTSGVHTFPAVLQSSGLYSLSSVVTVPSSSLGTQTYICNVNHKPSNTKVDKKVEPKSCGGGGSEAAAKGGGGSSELTQDPAVSVALGQTVRITCQGDSLRSYYASWYQQKPGQAPVLVIYGKNNRPSGIPDRFSGSSSGNTASLTITGAQAEDEADYYCNSRDSSGNHVVFGGGTKLTVLGYPGGGGSDKTHTCPPCPAPPVAGPSVFLFPPKPKDTLMISRTPEVTCVVVDVSHEAPEVQFNWYVDGVEVHNAKTKPREEQFNSTFRVVSVLTVVHQDWLNGKEYKCKVSNKGLPAPIEKTISKTKGQPREPQVYTLPPSRDELTKNQVSLTCLVKGFYPSDIAVEWESNGQPENNYKTTPPVLDSDGSFFLYSKLTVDKSRWQQGNVFSCSVMHEALHNHYTQKSLSLSPGK
B6: Y116-B1 (bispecific antibody)
light: DIQMTQSPSSLSASVGDRVTITCKASQDVGIAVAWYQQKPGKVPKLLIYWASTRHTGVPDRFSGSGSGTDFTLTISSLQPEDVATYYCQQYSSYPYTFGQGTKVEIKRTVAAPSVFIFPPSDEQLKSGTASVVCLLNNFYPREAKVQWKVDNALQSGNSQESVTEQDSKDSTYSLSSTLTLSKADYEKHKVYACEVTHQGLSSPVTKSFNRGECGAAAGGGGSGGGGSGGGGSEVQLVESGGGVVRPGGSLRLSCAASGFTFDDYGMSWVRQAPGKGLEWVSGINWNGGSTGYADSVKGRFTISRDNAKNSLYLQMNSLRAEDTAVYYCARGRSLLFDYWGQGTLVTVSR
heavy: EVQLVESGGGLVQPGGSLRLSCAASGFDFSRYWMSWVRQAPGKGLEWIGEINPDSSTINYAPSLKDKFIISRDNAKNSLYLQMNSLRAEDTAVYYCARPDGNYWYFDVWGQGTLVTVSSASTKGPSVFPLAPSSKSTSGGTAALGCLVKDYFPEPVTVSWNSGALTSGVHTFPAVLQSSGLYSLSSVVTVPSSSLGTQTYICNVNHKPSNTKVDKKVEPKSCGAAAGGGGSGGGGSSELTQDPAVSVALGQTVRITCQGDSLRSYYASWYQQKPGQAPVLVIYGKNNRPSGIPDRFSGSSSGNTASLTITGAQAEDEADYYCNSRDSSGNHVVFGGGTKLTVLGYPGGGGSDKTHTCPPCPAPPVAGPSVFLFPPKPKDTLMISRTPEVTCVVVDVSHEAPEVQFNWYVDGVEVHNAKTKPREEQFNSTFRVVSVLTVVHQDWLNGKEYKCKVSNKGLPAPIEKTISKTKGQPREPQVYTLPPSRDELTKNQVSLTCLVKGFYPSDIAVEWESNGQPENNYKTTPPVLDSDGSFFLYSKLTVDKSRWQQGNVFSCSVMHEALHNHYTQKSLSLSPGK
B7: ElotuzumAb (antibody, human IgG1, kappa, V domains shown)
VH: EVQLVESGGGLVQPGGSLRLSCAASGFDFSRYWMSWVRQAPGKGLEWIGEINPDSSTINYAPSLKDKFIISRDNAKNSLYLQMNSLRAEDTAVYYCARPDGNYWYFDVWGQGTLVTVSS
VL: DIQMTQSPSSLSASVGDRVTITCKASQDVGIAVAWYQQKPGKVPKLLIYWASTRHTGVPDRFSGSGSGTDFTLTISSLQPEDVATYYCQQYSSYPYTFGQGTKVEIKR
notes: anti-SLAMF7 monoclonal antibody, human IgG1 constant domains, kappa

The assay addresses T1, Human SLAMF7 (human, UniProt Q9NQ25 23-226).
T1 construct: also called SLAMF7 antigen; not shown: His tag
As to the kind of experiment: ELISA, plate coated with His-tagged antigen. Background: In an ELISA, binding on a coated surface is turned into a signal by an enzyme label.
As to B1, it took 9.18 nM to reach a half-maximal effect (EC50). That is a single-digit nanomolar value.

For the molecule B2, a half-maximal effect (EC50) was put at 5.59 nM.

In the case of B3, the EC50 (as a rule, the concentration at which the effect is half-maximal) worked out at 0.715 nM.

Turning to B4, it took 0.499 nM to reach a half-maximal effect (EC50).

Regarding B5, the EC50 came to 0.648 nM. This EC50 and that of the molecule before are within 1.5-fold of each other.

Molecule B6 returned an EC50 of 0.636 nM.

B7 had an EC50 of 0.628 nM. This EC50 and that of the molecule before are within 1.5-fold of each other.
